This assay deals with Cy5-labeled human neutrophil peptide 1 (HNP1) (human). The assay is described as follows: fluorescence polarisation.

As to “Recombinant SARS-CoV-2 Spike glycoprotein (from UniProt P0DTC2) (natural protein)”, the Kd worked out at 146 nM.

Source of the values: doi:10.1101/2021.05.27.445985.
